The values below come from patent US20050182242A1, “Global analysis of protein activities using proteome chips” (priority 2001, published 2005).

The labels stand for the following.
B1: CCT8: yeast GST-HisX6 fusion protein on proteome chip (protein, UniProt P47079 1-568, looked up)
T-complex protein 1 subunit …: MSLRLPQNPNAGLFKQGYNSYSNADGQIIKSIAAIRELHQMCLTSMGPCGRNKIIVNHLGKIIITNDAATMLRELDIVHPAVKVLVMATEQQKIDMGDGTNLVMILAGELLNVSEKLISMGLSAVEIIQGYNMARKFTLKELDEMVVGEITDKNDKNELLKMIKPVISSKKYGSEDILSELVSEAVSHVLPVAQQAGEIPYFNVDSIRVVKIMGGSLSNSTVIKGMVFNREPEGHVKSLSEDKKHKVAVFTCPLDIANTETKGTVLLHNAQEMLDFSKGEEKQIDAMMKEIADMGVECIVAGAGVGELALHYLNRYGILVLKVPSKFELRRLCRVCGATPLPRLGAPTPEELGLVETVKTMEIGGDRVTVFKQEQGEISRTSTIILRGATQNNLDDIERAIDDGVAAVKGLMKPSGGKLLPGAGATEIELISRITKYGERTPGLLQLAIKQFAVAFEVVPRTLAETAGLDVNEVLPNLYAAHNVTEPGAVKTDHLYKGVDIDGESDEGVKDIREENIYDMLATKKFAINVATEAATTVLSIDQIIMAKKAGGPRAPQGPRPGNWDQED
modifications: GST-His6 tag
notes: yeast GST-HisX6 fusion protein on proteome chip
B2: GFD1: yeast GST-HisX6 fusion protein on proteome chip (protein, UniProt Q04839 1-188, looked up)
mRNA transport factor GFD1: MPLESIWADAPDEEPIKKQKPSHKRSNNNKKNNNSRWSNESSSNNKKKDSVNKVKNNKGNHESKTKNKIKETLPREKKPPHSQGKISPVSESLAINPFSQKATEISPPPVSPSKMKTTKTQSKQDTASKMKLLKKKIEEQREILQKTHHKNQQQQVLMDFLNDEGSSNWVDDDEEELILQRLKTSLKI
modifications: GST-His6 tag
notes: as for B1
B3: DIN7: yeast GST-HisX6 fusion protein on proteome chip (protein, UniProt Q12086 1-430, looked up)
DNA damage-inducible protein …: MGIPGLLPQLKRIQKQVSLKKYMYQTLAIDGYAWLHRASCACAFELVMNKPTNKYLQFFIKRLQLLKRLKIKPYIVFDGDSLFVKNHTETRRRKKRLENEMIAKKLWSAGNRYNAMEYFQKSVDITPEMAKCIIDYCKLHSIPYIVAPFEADPQMVYLEKMGLIQGIISEDSDLLVFGCKTLITKLNDQGKALEISKDDFSALPENFPLGELSEQQFRNLVCLAGCDYTSGIWKVGVVTAMKIVKRYSEMKDILIQIERTEKLCFSKAFKQQVEFANYAFQYQRVFCPLSNQITTLNNIPKAVTNSHAEIIKIMKCIGSVVERGSGVRKDVINTKNIDHKVHEMIAKGELHPVDMASKLINRERKLKARKLFKVGLLGGESNSFNKKVEQPLVDTQDVLSERENSLDNKNASSIYMTSPAAISGTVPSIF
modifications: GST-His6 fusion tag
notes: as for B1
B4: DFG5: yeast GST-HisX6 fusion protein on proteome chip (protein, UniProt Q05031 27-437, looked up)
Mannan …: MDLDTTSKTSICDATALIQGGMLDYYEGTRYGGTVGMFQSPYYWWHAGEAFGGMLENWFLCENDTYQELLYDALLAQTGSNYDYIPSNQTMVEGNDDQGIWGITVMGAVERNFTDPGDGKPGWLAMVQAVFNTMYSRWDSEHCGGGLRWQIFTWNSGYNYKNTVSNACLFQIAARLGRYTGNTTYLEVAEQVFDWLVDVGYVVLNDTANVFDGAEIDTNCTDITKIEWTYNHGIVLGGLAYMYNATNGTGEWETSLTKILNGAKSYFFKDSIMYESACQDYGTCNTDQRTFKSIFSRMLGLTSVMAPFTRDTIDDLIKTSAEAAAKSCNGGTDGHTCGLNWQKQTNDGYYGLGEQMSALEVIQNLLIHDRPAPYKEDNGGTSKGDANAGMNSSTTNVLQNNLNIKKGDRAG
modifications: GST-His6 tag
notes: as for B1
B5: MPD2: yeast GST-HisX6 fusion protein on proteome chip (protein, UniProt Q99316 23-277, looked up)
Protein disulfide isomerase …: YSEAVTMVKSIEQYFDICNRNDSYTMIKYYTSWCQHCKTLAPVYEELGELYAKKANKDDTPINFLEVNCEFFGPTLCTDLPGFPIIELVKPRTKPLVLPKLDWSSMKFHERLWQRIKTWFNNPKYQLDTSRVVRFEGSRNLKSLSNFIDTVRSKDTEERFIEHIFDDSRNCNEELRSQQLLCKAGKEYYSDTLSKLYGDVNGLEKERRRLEALIKQNGDDLSKEVKEKLKIIRLQLSLLSHIEDQLEDTSSHDEL
modifications: GST-His6 tag
notes: as for B1
B6: CAM1: yeast GST-HisX6 fusion protein on proteome chip (protein, UniProt P29547 2-415, looked up)
Elongation factor 1-gamma 1: SQGTLYANFRIRTWVPRGLVKALKLDVKVVTPDAAAEQFARDFPLKKVPAFVGPKGYKLTEAMAINYYLVKLSQDDKMKTQLLGADDDLNAQAQIIRWQSLANSDLCIQIANTIVPLKGGAPYNKKSVDSAMDAVDKIVDIFENRLKNYTYLATENISLADLVAASIFTRYFESLFGTEWRAQHPAIVRWFNTVRASPFLKDEYKDFKFADKPLSPPQKKKEKKAPAAAPAASKKKEEAKPAATETETSSKKPKHPLELLGKSTFVLDDWKRKYSNEDTRPVALPWFWEHYNPEEYSLWKVTYKYNDELTLTFMSNNLVGGFFNRLSASTKYMFGCLVVYGENNNNGIVGAVMVRGQDYVPAFDVAPDWESYDYAKLDPTNDDDKEFINNMWAWDKPVSVNGEPKEIVDGKVLK
modifications: GST-His6 tag
notes: as for B1
B7: RPL9B: yeast GST-HisX6 fusion protein on proteome chip (protein, UniProt P51401 1-191, looked up)
Large ribosomal subunit …: MKYIQTEQQIEIPEGVTVSIKSRIVKVVGPRGTLTKNLKHIDVTFTKVNNQLIKVAVHNGDRKHVAALRTVKSLVDNMITGVTKGYKYKMRYVYAHFPINVNIVEKDGAKFIEVRNFLGDKKIRNVPVRDGVTIEFSTNVKDEIVLSGNSVEDVSQNAADLQQICRVRNKDIRKFLDGIYVSHKGFIVEDM
modifications: GST-HisX6 tag
notes: as for B1

The subject of the first data set is PI(4)P liposomes. Put plainly: Yeast proteome chip probed with PI(4)P liposomes. The settings on record: liposome binding signal on yeast proteome chip, Cy3-streptavidin detection. The text has this: (§1) To identify PI-binding proteins in yeast, liposomes were used as probes because the liposome provides the most relevant physiological condition to assay the interactors. Six types of liposomes were used. Each contains phosphatidylcholine (“PC”) with 1% (w/w) N-(biotinoyl)-1,2-dihexadecanoyl-sn-glycero-3-phosphoethanolamine, triethylammonium salt (biotin DHPE). The biotinylated lipid serves as a label that can be detected by Cy3-streptavidin (21). In addition to PC, the five other liposomes contain either 5% (w/w) PI(3)P, PI(4)P, PI(3,4)P2, PI(4,5)P2, or PI(3,4,5)P3 (FIG. 3A).
(§2) The protein-liposome interaction was assayed as follows. Appropriate amounts of each lipid in chloroform were mixed and dried under nitrogen. The lipid mixture was resuspended in TBS buffer by vortexing. The liposomes were created by sonication. Blocked proteome chips were washed three to five times in PBS buffer, and the extra liquid on the glass surface was removed by tapping the slides vertically on a KIMWIPE™. 200 μl of liposome solution was added to the proteome chip and immediately covered by a hydrophobic plastic cover slip (GRACE BIO-LAB™, USA). After trapped air bubbles were removed, the chip was incubated in a humidity chamber at RT for one hour. To remove the cover slip, the chip was immersed into large volume of PBS buffer (50 ml), so that the slip would float away. The chip was then moved to a second PBS bath (>50 ml) and washed 3×5 min with shaking at RT. After removing extra liquid on the surface of the chip, about 100 μl of Cy3 or Cy5 conjugated streptavidin (PIERCE™, USA; 1:2000 to 1:4000 dilution) was added to the surface and covered by a hydrophobic plastic cover slip (GRACE BIO-LABS™, USA). The chip was incubated for greater than 30 min in the dark at RT. The chip was then washed as described above. To completely remove the liquid on the chip, the chip was spun to dryness at 1500-2000 rpm for 5-10 min at RT.
(§3) • 1. S. Fields, Y. Kohara, D. J. Lockhart, Proc. Natl. Acad. Sci. 96, 8825 (1999); A. Goffeau et al., Science 274, 563 (1996). • 2 P. Ross-Macdonald et al., Nature 402, 413 (1999); J. L., DeRisi, V. R. Iyer, P. O. Brown, Science 278, 680 (1997); E. A. Winzeler et al., Science 285, 901 (1999). P. Uetz et al., Nature 403, 623 (2000); T. Ito et al., Proc. Natl. Acad. Sci. USA. 97, 1143 (2000) • 3 H. Zhu, M. Snyder, Curr. Opin. Chem. Biol. 5, 40 (2001). • 4 M. R. Martzen et al., Science 286, 1153 (1999). • 5 H. Zhu et al., Nat. Genet. 26, 283 (2000). • 6 G. MacBeath, S. L. Schreiber, Science 289, 1760 (2000). • 7 A. Caveman, J. Cell Sci. 113, 3543 (2000). • 8 P. Arenkov et al., Anal. Biochem 278, 123 (2000). • 9 D. A. Mitchell, T. K. Marshall, R. J. Deschenes, Yeast 9, 715 (1993). The expression vector pEGH was created by inserting an RGS-HisX6 epitope tag between the GST gene and the polycloning site of pEG(KG). The yeast ORFs were cloned using the strategy described previously (5), except every step was done in a 96-well format. Plasmid DNAs confirmed by DNA sequencing were reintroduced into both yeast (Y258) and E. coli (DH5a). […] 0.1 mM calcium was present in buffers in all subsequent steps. The chip was washed three times with PBS at RT. Cy3-conjugated streptavidin (Jackson IR, USA) (1:5000 dilution) was added to the chip and incubated for 30 min at RT. After extensive washing, the chip was spun dry and scanned using a microarray scanner; the data was subsequently acquired with the GENEPIX™ array densitometry software (Axon, USA). • 12 S. S. Hook, A. R. Means, Annu. Rev. Pharmacol. Toxicol.41, 471 (2001). • 13 M. S. Cyert, R. Kunisawa, D. Kaim, J. Thorner, Proc. Natl. Acad. Sci. USA 88, 7376 (1991). • 14 D. A. Stirling, K. A. Welch, M. J. Stark, EMBO J. 13, 4329 (1994). • 15 F. Bohl, Kruse, EMBO J. 19, 5514 (2000); E. Bertrand et al., Mol. Cell 2, 437 (1998). • 16 D. C. Winter, E. Y. Choe, R. Li, Proc. Nat. Acad Sci. USA 96, 7288 (1999). • 17 C.
With B1, the “PI(4)P” value worked out at 23.52.
As to B2, the “PI(4)P” value is −0.22.
B3: the “PI(4)P” value was 33.75.
For the molecule B4, the “PI(4)P” value was 19.81.
For the molecule B5, the “PI(4)P” value came to 37.45.
As for B6, the “PI(4)P” value was found to be 21.99.
As to B7, the “PI(4)P” value worked out at 12.85.

The test system of the next data set is PI(3,4,5)P3 liposomes. The data set can be described thus: Yeast proteome chip probed with PI(3,4,5)P3 liposomes. As to conditions: liposome binding signal on yeast proteome chip, Cy3-streptavidin detection.
Source text: as §1, §2, §3
B1: the “PI(3, 4, 5)P3” value worked out at 33.97.
Same read-out and setting: under B2 stands 3.38.
In the case of B3, the “PI(3, 4, 5)P3” value is 14.06.
The same measure, in the same setting: the figure for B4 is 60.98; for B5 it is 15.07; for B6 it is 4.16.
On to B7, for which the “PI(3, 4, 5)P3” value is given as −0.45.

A further data set concerns PI(4,5)P2 liposomes. The data set can be described thus: Yeast proteome chip probed with PI(4,5)P2 liposomes. The settings on record: liposome binding signal on yeast proteome chip, Cy3-streptavidin detection.
Source text: as §1, §2, §3
As to B3, the “PI(4, 5)P2” value was found to be 14.59.
B5: the “PI(4, 5)P2” value is given as 8.71.
B6: the “PI(4, 5)P2” value amounted to 25.69.
B7: the “PI(4, 5)P2” value came to 1.96.

The test system of the next data set is PI(3,4)P2 liposomes. Put plainly: Yeast proteome chip probed with PI(3,4)P2 liposomes. The settings on record: liposome binding signal on yeast proteome chip, Cy3-streptavidin detection.
Source text: as §1, §2, §3
Regarding B1, the “PI(3, 4)P2” value is 7.53.
For the molecule B2, the “PI(3, 4)P2” value was −0.78.
As for B3, the “PI(3, 4)P2” value came to 10.05.
Consider B4, for which the “PI(3, 4)P2” value was 48.66.
Regarding B5, the “PI(3, 4)P2” value is on record as 31.71.
As for B6, the “PI(3, 4)P2” value was −0.16.
Consider B7, for which the “PI(3, 4)P2” value is 7.38.

The next data set concerns phosphatidylcholine (PC) liposomes. Put plainly: Yeast proteome chip probed with PC liposomes. The settings on record: liposome binding signal on yeast proteome chip, Cy3-streptavidin detection.
Source text: as §1, §2, §3
On to B1, for which the PC worked out at 22.30.
With B2, the PC worked out at 4.99.
In turn, B3 registered a PC of 21.42.
Consider B4, for which the PC turned out to be 127.66.
B5: the PC is on record as 25.24.
As to B6, the PC came out at 18.49.
B7 showed a PC of 6.46.
